The values that follow come from article PMC8501954.

Where only a bound is given, the exact number is not on record here.

In this series the target is tRip1-402 (Plasmodium falciparum) (UniProt Q8IL48). The series is described as follows: competition EMSA. As to conditions: unmodified transcript; scale: fold difference from Sc tRNAPheGAA. Background: In EMSA bound probe runs differently from free probe, usually more slowly.

Take minihelixPhe: the binding signal was under 2.
